Data published in US20210261641A1 (Novo Nordisk, published 2021).

B1: GLP-1 anti TNP-Fab fusion protein (compound of Example 5 / FIG. 5, SEQ ID NO: 8) (other)
light: HGEGTFTSDVSSYLEEQAAREFIAWLVKGRPGGGSGGGSGGGSGGGSDIVMTQTPLSLSVTPGQPASISCRSSQSLLHSNGNTYLHWYLQKPGQSPQLLIYKVSNRFSGVPDRFSGSGSGTDFTLKISRVEAEDVGVYYCSQSTHVPWTFGQGTKVEIKRTVAAPSVFIFPPSDEQLKSGTASVVCLLNNFYPREAKVQWKVDNALQSGNSQESVTEQDSKDSTYSLSSTLTLSKADYEKHKVYACEVTHQGLSSPVTKSFNRGEC
heavy: QVQLQESGPGLVKPSETLSLTCTVSGGSISSGYWNWIRQPPGKGLEWIGTISYSGDTYYNPSLKSRVTISVDTSKNQFSLKLSSVTAADTAVYYCARYGSYVFDYWGQGTTVTVSSASTKGPSVFPLAPCSRSTSESTAALGCLVKDYFPEPVTVSWNSGALTSGVHTFPAVLQSSGLYSLSSVVTVPSSSLGTKTYTCNVDHKPSNTKVDKRVESKHHHHHHHHHH
modifications: N-terminal residue found as pyroglutamic acid in the purified protein
notes: Two-chain Fab fusion; also called GLP-1-(GGGS)4-aTNP light chain + aTNP-(His)10 heavy chain
B2: GLP-1 anti TfR-Fab fusion protein (compound of Example 6 / FIG. 6, SEQ ID NO: 11) (other)
light: HGEGTFTSDVSSYLEEQAAREFIAWLVKGRPGGGSGGGSGGGSGGGSDIQMTQSPASLSASLEEIVTITCQASQDIGNWLAWYQQKPGKSPQLLIYGATSLADGVPSRFSGSRSGTQFSLKISRVQVEDIGIYYCLQAYNTPWTFGGGTKLELKRADAAPTVSIFPPSSEQLTSGGASVVCFLNNFYPKDINVKWKIDGSERQNGVLNSWTDQDSKDSTYSMSSTLTLTKDEYERHNSYTCEATHKTSTSPIVKSFNRNEC
heavy: EVQLVESGGGLVQPGNSLTLSCVASGFTFSNYGMHWIRQAPKKGLEWIAMIYYDSSKMNYADTVKGRFTISRDNSKNTLYLEMNSLRSEDTAMYYCAVPTSHYVVDVWGQGVSVTVSSAKTTPPSVYPLAPGSAAQTNSMVTLGCLVKGYFPEPVTVTWNSGSLSSGVHTFPAVLQSDLYTLSSSVTVPSSTWPSETVTCNVAHPASSTKVDKKIVPRDCGHHHHHHHHHH
notes: Two-chain Fab fusion; also called GLP-1-(GGGS)4-aTfR light chain + aTfR-(His)10 heavy chain
B3: GLP-1 control Fab fusion protein (compound of Example 7 / FIG. 7, SEQ ID NO: 12) (other)
light: B1 light
heavy: B2 heavy
notes: Hybrid of the anti-TNP light chain fusion and the anti-TfR heavy chain; also called hybrid construct
B4: Vivotag 750 labelled GLP-1 anti TfR-Fab fusion protein (compound of Example 8 / FIG. 8) (other)
light: B2 light
heavy: B2 heavy
modifications: VivoTag750 (NHS ester) randomly attached to amines; mixture of 0, 1, 2, 3 labels per molecule (average about 1)
notes: The label positions are not defined; also called GLP-1-Active TfR; fluorescence labelled GLP-1 anti TfR-Fab fusion protein
B5: Vivotag 750 labelled GLP-1 control Fab fusion protein (compound of Example 9 / FIG. 9) (other)
light: B1 light
heavy: B2 heavy
modifications: VivoTag750 (NHS ester) randomly attached to amines; mixture of 0, 1, 2, 3 labels per molecule (average about 1)
notes: The label positions are not defined; also called fluorescence labelled GLP-1 control Fab fusion protein
B6: GLP-1 control Fab conjugate (compound of Example 14 / FIG. 14) (other)
light: DIVMTQTPLSLSVTPGQPASISCRSSQSLLHSNGNTYLHWYLQKPGQSPQLLIYKVSNRFSGVPDRFSGSGSGTDFTLKISRVEAEDVGVYYCSQSTHVPWTFGQGTKVEIKRTVAAPSVFIFPPSDEQLKSGTASVVCLLNNFYPREAKVQWKVDNALQSGNSQESVTEQDSKDSTYSLSSTLTLSKADYEKHKVYACEVTHQGLSSPVTKSFNRGEC
heavy: EVQLVESGGGLVQPGNSLTLSCVASGFTFSNYGMHWIRQAPKKGLEWIAMIYYDSSKMNYADTVKGRFTISRDNSKNTLYLEMNSLRSEDTAMYYCAVPTSHYVVDVWGQGVSVTVSSASTKGPSVFPLAPCSRSTSESTAALGCLVKDYFPEPVTVSWNSGCLTSGVHTFPAVLQSSGLYSLSSVVTVPSSSLGTKTYTCNVDHKPSNTKVDKRVESK
peptide: HGEGTFTSDVSSYLEEQAAREFIAWLVRGKG
modifications: epsilon amino group of Lys at position 36 (GLP-1(7-37) numbering) carries the linker -Ado-gGlu-Ado-, joined via -CH2-C(O)- to Cys 382 of the Fab; thiol of Cys 382 (numbering of FIG. 14 / SEQ ID NO: 5) linked via Chem. 2 -CH2-C(O)-Ado-gGlu-Ado- to the GLP-1 analogue
B7: GLP-1 anti TfR-Fab conjugate (compound of Example 15 / FIG. 15) (other)
light: DIQMTQSPASLSASLEEIVTITCQASQDIGNWLAWYQQKPGKSPQLLIYGATSLADGVPSRFSGSRSGTQFSLKISRVQVEDIGIYYCLQAYNTPWTFGGGTKLELKRTVAAPSVFIFPPSDEQLKSGTASVVCLLNNFYPREAKVQWKVDNALQSGNSQESVTEQDSKDSTYSLSSTLTLSKADYEKHKVYACEVTHQGLSSPVTKSFNRGEC
heavy: B6 heavy
peptide: B6 peptide
modifications: epsilon amino group of Lys at position 36 (GLP-1(7-37) numbering) carries the linker -Ado-gGlu-Ado-, joined via -CH2-C(O)- to Cys 377 of the Fab; thiol of Cys 377 (numbering of FIG. 15 / SEQ ID NO: 3) linked via Chem. 2 -CH2-C(O)-Ado-gGlu-Ado- to the GLP-1 analogue

The binders below were run against T1, human GLP-1 receptor (human, UniProt P43220 24-463) (assay: displacement of [125I]-GLP-1(7-36)NH2 from BHK membranes with human GLP-1R, SPA, low HSA).
T1 construct: whole, on cells
Procedure: 1. For the receptor binding assay in the presence of low HSA (0.001%) 50 μl of the assay buffer was added to each well of an assay plate. Assay continued with step 3. 2. For the receptor binding assay in the presence of high HSA (2.0%) 50 μl of the 8% albumin stock was added to each well of an assay plate. Assay continued with step 3. 3. Test compounds were serially diluted to give the following concentrations: 8×10⁻⁷ M, 8×10⁻⁸ M, 8×10⁻⁹ M, 8×10⁻¹° M, 8×10⁻¹¹ M, 8×10⁻¹² M and 8×10⁻¹³ M. Twenty-five μl were added to appropriate wells in the assay plate. 4. Cell membrane aliquots were thawed and diluted to their working concentration. Fifty μl were added to each well in the assay plate. 5. WGA SPA beads were suspended in assay buffer at 20 mg/ml. The suspension was diluted to 10 mg/ml in assay buffer just prior to addition to the assay plate. Fifty μl were added to each well in the assay plate. 6. The incubation was started by adding 25 μl of 480 pM solution of [¹²⁵I]-GLP-1]-(7-36) NH₂ to each well of the assay plate. A 25 μl aliquot was reserved for measuring total counts/well. 7. The assay plate was incubated for 2 h at 30° C. 8. The assay plate was centrifuged for 10 min. 9. The assay plate was read in a Packard TopCount NXT instrument.
The data from the TopCount instrument were transferred to GraphPad Prism software. The software averaged the values for the replicates and performed a non-linear regression. IC₅₀ values were calculated by the software and reported in nM.

Row | Binder | IC50 [nM]
1 | B1 | 12.5
2 | B2 | 3.28
3 | B3 | 2.39
4 | B4 | 9.61
5 | B5 | 3.89
6 | B6 | 55.9
7 | B7 | 32.5

Each binder was assayed against T2, mouse transferrin receptor (mouse, UniProt Q62351 1-763) (assay: inhibition of uptake of 5 nM Cy5-labelled anti TfR-Fab into MEF-1 cells (mouse TfR), high-content imaging).
T2 construct: whole, on cells; also called TfR
T2 sequence (Q62351 whole entry): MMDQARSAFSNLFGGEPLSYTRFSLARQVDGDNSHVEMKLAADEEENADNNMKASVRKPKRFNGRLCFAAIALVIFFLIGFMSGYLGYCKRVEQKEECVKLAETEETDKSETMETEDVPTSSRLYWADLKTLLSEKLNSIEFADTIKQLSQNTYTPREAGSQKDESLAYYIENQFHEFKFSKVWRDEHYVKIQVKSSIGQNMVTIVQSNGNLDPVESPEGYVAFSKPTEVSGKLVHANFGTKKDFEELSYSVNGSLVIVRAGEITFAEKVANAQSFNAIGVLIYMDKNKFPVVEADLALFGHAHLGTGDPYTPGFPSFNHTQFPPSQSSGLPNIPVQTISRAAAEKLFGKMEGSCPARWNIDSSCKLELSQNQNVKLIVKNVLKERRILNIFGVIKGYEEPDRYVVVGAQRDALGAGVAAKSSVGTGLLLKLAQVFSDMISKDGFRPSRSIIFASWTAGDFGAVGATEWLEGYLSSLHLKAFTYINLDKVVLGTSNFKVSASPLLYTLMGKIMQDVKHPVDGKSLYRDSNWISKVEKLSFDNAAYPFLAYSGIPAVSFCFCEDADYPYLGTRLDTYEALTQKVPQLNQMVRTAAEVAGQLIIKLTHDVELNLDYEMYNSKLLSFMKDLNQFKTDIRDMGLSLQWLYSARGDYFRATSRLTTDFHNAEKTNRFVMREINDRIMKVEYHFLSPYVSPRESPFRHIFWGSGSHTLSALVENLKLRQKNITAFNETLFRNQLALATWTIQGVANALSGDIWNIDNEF
Procedure: The day before each assay the cells were plated out at 5000 cells/well. 2. On the assay day the cells were washed with HBSS containing 0.1% (w/v) HSA. 3. Test compounds were serially diluted to give the following concentrations: 2×10⁻⁶ M, 2×10⁻⁷ M, 2×10⁻⁸ M, 2×10⁻⁹ M, 2×10⁻¹° M, 2×10⁻¹¹ M, 2×10⁻¹² M and 2×10⁻¹³ M. 100 μl of each was added to appropriate wells in the assay plate. 4. To each of the wells the fluorescently-labelled Fab fragment was added to a final concentration of 5 nM. 5. The plates were incubated at 37° C. for 15 min. After incubation the buffer was removed and the cells were washed with HBSS containing 0.1% (w/v) HSA. 6. Fifty μl of cold 4% PFA was added in a fume hood. […] The assay plate was read in a high-content imaging instrument (IN Cell 2200 instrument, GE).
The data from the IN Cell instrument was analysed using the software that was supplied with the instrument. […] The amount of fluorescence that was internalised was calculated by defining granules visible in the Cy5 channel of the instrument and corresponded to internalised Cy5-labelled Fab fragment. The number and intensity of granules in each cell were calculated. The readout from the instrument that was used for further calculations was the total area of the granules divided by the number of cells in each acquisition field. […] IC50 values were calculated by the software and reported in nM.

Row | Binder | IC50 [nM]
8 | B7 | 17.4

Each binder was assayed against T1, human GLP-1 receptor (assay: cell-based or functional assay).

Row | Binder | EC50/pM (0% HSA), in vitro potency, CRE luciferase reporter gene assay [pM]
9 | B1 | 267
10 | B2 | 48.3
11 | B3 | 52.4
12 | B4 | 92.8
13 | B5 | 58.6
14 | B6 | 818
15 | B7 | 435
